Reference: IntAct's records for PubMed 27773430

What was measured:
pidd1_human PIDD1 = pidd1_human PIDD1 (UniProt Q9HB75)
casp2_rat Casp2 = casp2_rat Casp2 (UniProt P55215)
Chain of casp2_rat Casp2 (P55215 whole entry): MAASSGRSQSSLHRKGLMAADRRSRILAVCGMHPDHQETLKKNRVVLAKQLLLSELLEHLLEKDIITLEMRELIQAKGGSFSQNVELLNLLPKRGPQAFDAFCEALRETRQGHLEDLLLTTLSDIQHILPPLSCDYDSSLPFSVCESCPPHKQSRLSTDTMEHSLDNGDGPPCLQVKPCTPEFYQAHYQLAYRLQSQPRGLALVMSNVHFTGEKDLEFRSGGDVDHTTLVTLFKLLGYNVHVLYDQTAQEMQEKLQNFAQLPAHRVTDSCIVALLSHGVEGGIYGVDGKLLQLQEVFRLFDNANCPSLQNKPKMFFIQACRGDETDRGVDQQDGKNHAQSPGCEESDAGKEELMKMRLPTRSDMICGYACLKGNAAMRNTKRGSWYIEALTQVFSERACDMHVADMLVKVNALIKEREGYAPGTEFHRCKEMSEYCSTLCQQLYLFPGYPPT

Chain of pidd1_human PIDD1 (Q9HB75 whole entry): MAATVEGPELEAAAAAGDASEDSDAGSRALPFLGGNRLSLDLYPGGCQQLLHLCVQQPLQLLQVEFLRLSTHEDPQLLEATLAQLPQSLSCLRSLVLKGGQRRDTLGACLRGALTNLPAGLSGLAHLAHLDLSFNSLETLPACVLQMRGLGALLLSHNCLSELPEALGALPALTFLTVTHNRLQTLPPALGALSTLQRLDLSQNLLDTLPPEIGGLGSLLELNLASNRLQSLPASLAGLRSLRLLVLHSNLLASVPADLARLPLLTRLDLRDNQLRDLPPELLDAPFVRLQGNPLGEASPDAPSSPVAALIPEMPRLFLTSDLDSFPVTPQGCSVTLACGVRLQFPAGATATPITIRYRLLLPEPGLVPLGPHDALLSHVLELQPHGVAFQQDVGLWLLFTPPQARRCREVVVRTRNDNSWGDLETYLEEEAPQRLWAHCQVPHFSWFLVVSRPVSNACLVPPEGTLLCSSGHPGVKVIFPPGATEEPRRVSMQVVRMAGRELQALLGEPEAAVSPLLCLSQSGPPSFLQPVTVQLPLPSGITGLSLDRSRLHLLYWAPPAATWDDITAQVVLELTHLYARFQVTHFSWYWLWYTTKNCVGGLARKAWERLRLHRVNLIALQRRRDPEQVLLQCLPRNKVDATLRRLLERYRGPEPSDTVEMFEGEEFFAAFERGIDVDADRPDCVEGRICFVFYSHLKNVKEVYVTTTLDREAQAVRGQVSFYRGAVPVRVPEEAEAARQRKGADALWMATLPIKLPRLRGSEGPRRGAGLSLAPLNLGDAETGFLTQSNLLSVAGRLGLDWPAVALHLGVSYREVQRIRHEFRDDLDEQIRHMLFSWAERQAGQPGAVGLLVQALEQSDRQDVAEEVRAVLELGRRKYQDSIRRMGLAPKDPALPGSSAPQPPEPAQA
Chain of Death domain-containing protein CRADD (Homo sapiens), P78560 G128R (P78560 whole entry G128R, the tested form may be a part): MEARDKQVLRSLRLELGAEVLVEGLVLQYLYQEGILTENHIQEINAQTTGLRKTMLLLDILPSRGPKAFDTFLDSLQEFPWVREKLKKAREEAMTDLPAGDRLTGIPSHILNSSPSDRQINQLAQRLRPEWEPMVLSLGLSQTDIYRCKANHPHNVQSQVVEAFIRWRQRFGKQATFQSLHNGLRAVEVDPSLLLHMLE
Chain of Death domain-containing protein CRADD (Homo sapiens), P78560 F164C (P78560 whole entry F164C, the tested form may be a part): as the sequence (P78560 whole entry G128R, the tested form may be a part) above, with R128G, F164C counted along it
Chain of Death domain-containing protein CRADD (Homo sapiens), P78560 R170C (P78560 whole entry R170C, the tested form may be a part): as the sequence (P78560 whole entry G128R, the tested form may be a part) above, with R128G, R170C counted along it
Chain of Death domain-containing protein CRADD (Homo sapiens), P78560 R170H (P78560 whole entry R170H, the tested form may be a part): as the sequence (P78560 whole entry G128R, the tested form may be a part) above, with R128G, R170H counted along it

Death domain-containing protein CRADD (Homo sapiens), P78560 R170C
effect of a mutation on the interaction (pidd1_human PIDD1): decreasing interaction strength
effect of a mutation on the interaction (casp2_rat Casp2): decreasing interaction strength

Death domain-containing protein CRADD (Homo sapiens), P78560 R170H
effect of a mutation on the interaction (pidd1_human PIDD1): decreasing interaction strength
effect of a mutation on the interaction (casp2_rat Casp2): decreasing interaction strength

Death domain-containing protein CRADD (Homo sapiens), P78560 F164C
effect of a mutation on the interaction (pidd1_human PIDD1): with no effect
effect of a mutation on the interaction (casp2_rat Casp2): with no effect

Death domain-containing protein CRADD (Homo sapiens), P78560 G128R
effect of a mutation on the interaction (pidd1_human PIDD1): disrupting interaction strength
effect of a mutation on the interaction (casp2_rat Casp2): decreasing interaction strength
